# Laboratory results: article PMC3171579 (ACS combinatorial science, 2011)
# Non-standard residues stand in square brackets, D forms with d. *: point of attachment. Dkb = 3,3-dimethyl-2-ketobutyryl, CC(C)(C)C(=O)C(=O)*; d(β3hF) = N[C@@H](CC(=O)O)Cc1ccccc1; Pip = O=C(O)[C@@H]1CCCCN1; Nle = CCCC[C@H](N)C(=O)O
# System: cyclophilin A (CypA)
# Experiment: not given
# Conditions: cell free assay; cited from earlier work
row,Molecule,IC50
1,CC[C@H]1C[C@H](C)[C@@]2(NC1=O)O[C@@H](C[C@H](O)[C@@H](C)CC/C=C/C=C(\C)[C@@H]1C/C=C/C=C/[C@H](O)[C@H](C)[C@@H](O)[C@@H](CCC(C)=O)C(=O)N[C@@H](C(C)C)C(=O)N[C@@H](Cc3cccc(O)c3)C(=O)N3CCC[C@H](N3)C(=O)O1)[C@H](C)[C@H](O)[C@@H]2C [Sanglifehrin A],~7 nM

# Target: T1, FK506-binding protein 12 (human, UniProt P62942 1-108)
# T1 sequence (P62942 whole entry): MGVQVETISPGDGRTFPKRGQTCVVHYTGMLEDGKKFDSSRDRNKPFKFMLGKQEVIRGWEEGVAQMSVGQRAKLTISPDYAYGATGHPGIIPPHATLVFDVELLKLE
# Experiment: fluorescence polarisation
# Conditions: not given
row,Molecule,IC50
1,cyclo(AAF[Dkb][Pip][d(β3hF)]Q) (also: Dkb 4 joined by ester to 3) [rapalog 2k],18 µM
2,cyclo(AA[dA][Dkb][Pip][dI]Q) (also: Dkb 4 joined by ester to 3) [rapalog 2i],266 µM

# Target: T1, FK506-binding protein 12
# Experiment: fluorescence polarisation
# Conditions: not given
# Remark: another data set of the same source
row,Molecule,IC50
1,"cyclo(GK[dA][Dkb][Pip][d(β3hF)]Q) (also: ester bond between residues 3 and 4) [rapalog 11 (R3 Lys, R4 Gly)]",93 µM
2,"cyclo(AK[dA][Dkb][Pip][d(β3hF)]Q) (also: ester bond between residues 3 and 4) [rapalog 11 (R3 Lys, R4 Ala)]",> 100 µM
3,"cyclo(KK[dA][Dkb][Pip][d(β3hF)]Q) (also: ester bond between residues 3 and 4) [rapalog 11 (R3 Lys, R4 Lys)]",> 100 µM
4,"cyclo(A[dT]K[dA][Dkb][Pip][d(β3hF)]Q) (also: 5 Dkb: ester to 4) [rapalog 12 (R3 Lys, R4 D-Thr)]",> 100 µM
5,"cyclo(AAK[dA][Dkb][Pip][d(β3hF)]Q) (also: 5 Dkb: ester to 4) [rapalog 12 (R3 Lys, R4 Ala)]",> 100 µM
6,"cyclo(A[Nle]K[dA][Dkb][Pip][d(β3hF)]Q) (also: 5 Dkb: ester to 4) [rapalog 12 (R3 Lys, R4 Nle)]",> 100 µM
7,"cyclo(K[dF][dA][Dkb][Pip][d(β3hF)]Q) (also: ester bond between residues 3 and 4) [rapalog 11 (R3 D-Phe, R4 Lys)]",> 100 µM
8,"cyclo(AP[dF][dA][Dkb][Pip][d(β3hF)]Q) (also: 5 Dkb: ester to 4) [rapalog 12 (R3 D-Phe, R4 Pro)]",> 100 µM
9,"cyclo(AK[dF][dA][Dkb][Pip][d(β3hF)]Q) (also: 5 Dkb: ester to 4) [rapalog 12 (R3 D-Phe, R4 Lys)]",> 100 µM
10,"cyclo(K[Nle][dA][Dkb][Pip][d(β3hF)]Q) (also: ester bond between residues 3 and 4) [rapalog 11 (R3 Nle, R4 Lys)]",> 100 µM
11,"cyclo(A[dT][Nle][dA][Dkb][Pip][d(β3hF)]Q) (also: 5 Dkb: ester to 4) [rapalog 12 (R3 Nle, R4 D-Thr)]",> 100 µM
12,"cyclo(K[dT][dA][Dkb][Pip][d(β3hF)]Q) (also: ester bond between residues 3 and 4) [rapalog 11 (R3 D-Thr, R4 Lys)]",> 100 µM
13,"cyclo([Nle][dT][dA][Dkb][Pip][d(β3hF)]Q) (also: ester bond between residues 3 and 4) [rapalog 11 (R3 D-Thr, R4 Nle)]",> 100 µM
14,"cyclo(AP[dT][dA][Dkb][Pip][d(β3hF)]Q) (also: 5 Dkb: ester to 4) [rapalog 12 (R3 D-Thr, R4 Pro)]",> 100 µM
15,"cyclo(PA[dA][Dkb][Pip][d(β3hF)]Q) (also: ester bond between residues 3 and 4) [rapalog 11 (R3 Ala, R4 Pro)]",> 100 µM
16,"cyclo(AKA[dA][Dkb][Pip][d(β3hF)]Q) (also: 5 Dkb: ester to 4) [rapalog 12 (R3 Ala, R4 Lys)]",> 100 µM
17,"cyclo([dV][dV][dA][Dkb][Pip][d(β3hF)]Q) (also: ester bond between residues 3 and 4) [rapalog 11 (R3 D-Val, R4 D-Val)]",> 100 µM
18,"cyclo([dF][dV][dA][Dkb][Pip][d(β3hF)]Q) (also: ester bond between residues 3 and 4) [rapalog 11 (R3 D-Val, R4 D-Phe)]",> 100 µM
19,"cyclo(A[dV][dV][dA][Dkb][Pip][d(β3hF)]Q) (also: 5 Dkb: ester to 4) [rapalog 12 (R3 D-Val, R4 D-Val)]",> 100 µM
20,"cyclo(AP[dV][dA][Dkb][Pip][d(β3hF)]Q) (also: 5 Dkb: ester to 4) [rapalog 12 (R3 D-Val, R4 Pro)]",> 100 µM
21,"cyclo(A[dF][dV][dA][Dkb][Pip][d(β3hF)]Q) (also: 5 Dkb: ester to 4) [rapalog 12 (R3 D-Val, R4 D-Phe)]",> 100 µM

# The remaining lines, values ahead:
row,IC50,Molecule
1,87 µM,"cyclo(A[dF]P[dA][Dkb][Pip][d(β3hF)]Q) (also: 5 Dkb: ester to 4) [rapalog 12 (R3 Pro, R4 D-Phe)]"
2,80 µM,"cyclo([dV]K[dA][Dkb][Pip][d(β3hF)]Q) (also: ester bond between residues 3 and 4) [rapalog 11 (R3 Lys, R4 D-Val)]"
3,71 µM,"cyclo([Nle]P[dA][Dkb][Pip][d(β3hF)]Q) (also: 4 Dkb: ester to 3) [rapalog 11 (R3 Pro, R4 Nle)]"
4,64 µM,"cyclo([dV]P[dA][Dkb][Pip][d(β3hF)]Q) (also: 4 Dkb: ester to 3) [rapalog 11 (R3 Pro, R4 D-Val)]"
5,62 µM,"cyclo([dT]K[dA][Dkb][Pip][d(β3hF)]Q) (also: ester bond between residues 3 and 4) [rapalog 11 (R3 Lys, R4 D-Thr)]"
6,58 µM,"cyclo(PK[dA][Dkb][Pip][d(β3hF)]Q) (also: ester bond between residues 3 and 4) [rapalog 11 (R3 Lys, R4 Pro)]"
7,46 µM,"cyclo([dF]P[dA][Dkb][Pip][d(β3hF)]Q) (also: 4 Dkb: ester to 3) [rapalog 11 (R3 Pro, R4 D-Phe)]"
8,43 µM,"cyclo(A[dV]P[dA][Dkb][Pip][d(β3hF)]Q) (also: 5 Dkb: ester to 4) [rapalog 12 (R3 Pro, R4 D-Val)]"
9,41 µM,"cyclo([dT]P[dA][Dkb][Pip][d(β3hF)]Q) (also: 4 Dkb: ester to 3) [rapalog 11 (R3 Pro, R4 D-Thr)]"
10,38 µM,"cyclo(A[dT]P[dA][Dkb][Pip][d(β3hF)]Q) (also: 5 Dkb: ester to 4) [rapalog 12 (R3 Pro, R4 D-Thr)]"
11,36 µM,"cyclo(KP[dA][Dkb][Pip][d(β3hF)]Q) (also: 4 Dkb: ester to 3) [rapalog 11 (R3 Pro, R4 Lys)]"
12,33 µM,"cyclo(AP[dA][Dkb][Pip][d(β3hF)]Q) (also: ester bond between residues 3 and 4) [rapalog 11 (R3 Pro, R4 Ala)]"
13,29 µM,"cyclo(AKP[dA][Dkb][Pip][d(β3hF)]Q) (also: 5 Dkb: ester to 4) [rapalog 12 (R3 Pro, R4 Lys)]"
14,27 µM,"cyclo(PP[dA][Dkb][Pip][d(β3hF)]Q) (also: 4 Dkb: ester to 3) [rapalog 11 (R3 Pro, R4 Pro)]"
15,21 µM,"cyclo(WP[dA][Dkb][Pip][d(β3hF)]Q) (also: 4 Dkb: ester to 3) [rapalog 11 (R3 Pro, R4 Trp)]"
16,21 µM,"cyclo(DP[dA][Dkb][Pip][d(β3hF)]Q) (also: ester bond between residues 3 and 4) [rapalog 11 (R3 Pro, R4 Asp)]"
17,21 µM,"cyclo(AAP[dA][Dkb][Pip][d(β3hF)]Q) (also: 5 Dkb: ester to 4) [rapalog 12 (R3 Pro, R4 Ala)]"
18,12 µM,"cyclo(WK[dA][Dkb][Pip][d(β3hF)]Q) (also: ester bond between residues 3 and 4) [rapalog 11 (R3 Lys, R4 Trp)]"
19,6 µM,"cyclo(AGP[dA][Dkb][Pip][d(β3hF)]Q) (also: 5 Dkb: ester to 4) [rapalog 12 (R3 Pro, R4 Gly)]"
20,3 µM,"cyclo(ADP[dA][Dkb][Pip][d(β3hF)]Q) (also: 5 Dkb: ester to 4) [rapalog 12 (R3 Pro, R4 Asp)]"
